Experimental data published in US7303752B2, “Hookworm vaccine” (The George Washington University, priority 2001, dated 2007).
“And” between values parts separate entries of the source, which are not always exact repeats. Equal values may be shown once.

Assays:
[1] = test system: recombinant Ac-CP-2; assay: Proteolytic activity of recombinant Ac-CP-2 against Z-Phe-Arg-AMC; assay type: biochemical, Ancylostoma caninum
Procedure: Purified, recombinant Ac-CP-2 was assessed for proteolytic activity using the fluorogenic peptidyl substrate Z-Phe-Arg-aminomethyl coumarin (AMC) (Bachem). The pH optimum of Ac-CP-2 was assessed using Z-Phe-Arg-AMC at different pH values according to published protocols. The cysteine protease inhibitor E64 was included in some assays at a final concentration of 5 μM. Recombinant Ac-CP-2 was treated with PNGase F and O-glycosidase, according to the manufacturer's instructions (Enzymatic CarboRelease kit, QA-Bio), under denaturing conditions to remove any N-linked and O-linked oligosaccharides.
Canine IgG was purified from sera of vaccinated dogs using protein A-agarose (Amersham Biosciences) as previously described. Purified IgG (10-500 ng) was incubated with 1.0 μg of recombinant Ac-CP-2 for 45 mins prior to assessing proteolytic activity as described above.

[2] = test system: antibody to recombinant proteins; assay: Pre-challenge antibody titer ELISA, trial with Ac-ASP-2, Ac-API, Ac-MEP-1, Ac-APR-1 in AS03; assay type: in vivo, dog
Procedure: (§1) The vaccine trial was designed to test Ac-API, Ac-ASP-2, Ac-MEP-1, Ac-APR-1 formulated with Adjuvant System 03 (AS03) obtained from GlaxoSmithKline (GSK). The rationale for selecting AS03 as an adjuvants is discussed elsewhere (Stoute et al, 1997). The ten purpose bred beagles were randomized into five arms: immunized with the adjuvant-formulated recombinant proteins or adjuvant only (control). To make six doses of antigen formulated with AS03, […] of recombinant protein (0.3 ml of antigen at a concentration of 2 mg.ml^−1) was mixed with 1.2 ml of 20 mM Tris-HCl, 0.5 M NaCl, pH 7.9 and 1.5 ml of AS03; the contents of the tube were vortex mixed for 30 seconds then shaken at low speed for 10 minutes. Dogs were immunized with 100 g of formulated antigen in a final volume of 0.5 ml. ASO3 only control was prepared as described above, with PBS included instead of antigen. Formulation of GSK adjuvants were conducted according to the protocol provided by GSK. All injections were performed intramuscularly (IM). Test and control articles were prepared on the day of injection. All animals received 4 immunizations approximately 3 weeks apart.
Beagles were immunized with formulated Ac-ASP-2 as previously described (Loukas et al, 2004). The vaccines were administered IM three times beginning at age 62+/−4 days. Boosts were administered to the dogs at intervals of 21 days. Blood was drawn at least once every 21 days and serum was separated from cells by centrifugation. Each animal's specific antibody response was evaluated by indirect ELISA using serum taken prior to the infective challenge (Loukas et al, 2004). Recombinant Ac-ASP-2 was coated onto microtiter plates at a concentration of 5 g.ml^−1. Dog sera were titrated between 1:100 and 1:2×10^6 to determine endpoint titers. Anti-canine IgG1, IgG2 and IgE antibodies conjugated to horse-radish peroxidase (Bethyl Laboratories) were used at a dilution of 1:1,000.

[3] = test system: A. caninum; assay: Canine vaccine trial with Ac-ASP-2, Ac-API, Ac-MEP-1, Ac-APR-1 in AS03, footpad challenge with 500 A. caninum L3; assay type: in vivo, dog
Procedure: as §1, with “The ten purpose bred beagles were randomized into five arms: immunized with the adjuvant-formulated recombinant proteins or adjuvant only (control).” left out
A. caninum larvae were cultured from eggs collected in the feces of infected dogs. All hookworms in the infective challenge were approximately equal age (17±7 days post hatching). The species identity of the infective larvae were validated using PCR. All dogs were infected by the footpad method with the same dose of 500 L3 of A. caninum (Zhan et al, 2001). Larval challenge occurred on one of three consecutive days (at age 120+/−9 days). Fourteen-sixteen days after the final immunization, dogs were anesthetized using a combination of ketamine and xylazine (20 mg.kg^−1 and 10 mg.kg^−1 respectively), and 500 A. caninum L3 in a final volume of […] were applied to the footpad.

[4] = test system: anti-ASP-2 antibodies; assay: ELISA of canine IgG1, IgG2, IgE after Ac-ASP-2/AS03 vaccination (Example 12); assay type: in vivo, dog
Procedure: This study was conducted and reported in compliance with the intent of the Good Laboratory Practice Regulations (F.R. Vol. 43, No. 247, pp. 60013-60025, Dec. 22, 1978 and subsequent amendments). The study was audited by Quality Assurance while in progress to assure compliance with GLP regulations, adherence to the protocol and standard operating procedures. The data and final report were audited by Quality Assurance to assure that the report accurately described study conduct and results. The vaccine trial was designed to test Ac-ASP-2 formulated with Adjuvant System 03 (AS03) 44 obtained from GlaxoSmithKline. The rationale for selecting AS03 as an adjuvants is discussed elsewhere 37. The ten purpose bred beagles were randomized into two arms: immunized with Ac-ASP-2 (SEQ ID NO: 20) or adjuvant only (control). To make six doses of Ac-ASP-2 (SEQ ID NO: 20) formulated with AS03, 600 μg of recombinant protein (0.3 ml of Ac-ASP-2 (SEQ ID NO: 20) at a concentration of 2 mg.ml^−1) was mixed with 1.2 ml of 20 mM Tris-HCl, 0.5 M NaCl, pH 7.9 and 1.5 ml of AS03; the contents of the tube were vortex mixed for 30 seconds then shaken at low speed for 10 minutes. […]
Beagles were immunized with formulated Ac-ASP-2 (SEQ ID NO: 20) as previously described^37. […] Each animal's specific antibody response was evaluated by indirect ELISA using serum taken prior to the infective challenge^37. […]

Molecule: CC(C)C[C@H](NC(=O)[C@H]1O[C@@H]1C(=O)O)C(=O)NCCCCN=C(N)N [E64]
- % reduction in proteolytic activity ([1]; 1.0 μg Ac-CP-2, Z-Phe-Arg-AMC, 50 ng pooled IgG or E64 5 μM, mean of triplicate): 100 ± 0%
- cleavage of the peptide substrate, in words ([1]; final concentration of 5 μM): completely ablated

B1: Ac-ASP-2: A. caninum secreted protein 2, SEQ ID NO: 20; recombinant from Sf9 insect cells, given with AS03 (protein, listed as Ancylostoma caninum)
chain: MLVLVPLLALLAVSVHGNSMRCGNNGMTDEARQKFLDVHNSYRSMVAKGQAKDAISGNAPKAAKMKKMIYDCNVESTAMQNAKKCVFAHSHRKGVGENIWMSTARQMDKAQAAQQASDGWFSELAKYGVGQENKLTTQLWNRGVMIGHYTQMVWQESYKLGCYVEWCSSMTYGVCQYSPQGNNMNSLTYEKGNPCTKDSDCGSNASCSAGEALCVVRG
- Pre-challenge antibody titer, IgE, GEOMEAN ([2]; geometric mean of group): 100
- Pre-challenge antibody titer, IgG1, GEOMEAN ([2]; geometric mean of group): 10,837
- Pre-challenge antibody titer, IgG2, GEOMEAN ([2]; geometric mean of group): 20,950
- IgG1 and IgG2 antibody titers to recombinant Ac-ASP-2, in words ([2]; immunized canines): strong
- Pre-challenge antibody titer, IgE ([2]; individual dogs): 100
- Pre-challenge antibody titer, IgG1 ([2]; individual dogs): 13,500 (4×) and 4,500
- Pre-challenge antibody titer, IgG2 ([2]; individual dogs): 40,500 (2×) and 13,500 (3×)
- IgE titers to Ac-ASP-2, in words ([2]; test canines): one log lower than the IgG1 and IgG2 titers
- worm burdens, Maximum ([3]; 5 dogs): 226.00
- worm burdens, Minimum ([3]; 5 dogs): 89.00
- worm burdens, Mean ([3]; 5 dogs, ASO3 control 203.8000): 166.0000
- worm burdens, Median ([3]; 5 dogs, ASO3 control 215.0000): 174.0000
- worm burden, Colon, Male, Average ([3]; group average, AS03 control 5): 4
- worm burden, Colon, Female, Average ([3]; group average, AS03 control 9): 5
- worm burden, Intestine, Female, Average ([3]; group average, AS03 control 95): 81
- worm burden, Intestine, Male, Average ([3]; group average, AS03 control 96): 76
- worm burden, Total, Average ([3]; group average, AS03 control 204): 166
- worm burden, Colon, Female ([3]; individual dogs): 5 and 4 and 3 and 8 and 6
- worm burden, Colon, Male ([3]; individual dogs): 5 and 4 and 1 (2×) and 9
- worm burden, Intestine, Female ([3]; individual dogs): 87 and 101 and 115 and 72 and 28
- worm burden, Intestine, Male ([3]; individual dogs): 62 and 72 and 107 and 85 and 54
- worm burden, Total ([3]; individual dogs): 160 and 181 and 226 and 174 and 89
- IgG1 and IgG2 antibody titers to recombinant Ac-ASP-2, in words ([4]; immunized canines): strong
- IgE titers to Ac-ASP-2, in words ([4]; test canines): one log lower than the IgG1 and IgG2 titers
